Reference: US20200087395 (published 2020)

Legend:
mouse CD200R = biological target: T1, mouse CD200R (mouse, UniProt Q9ES57); experiment: SPR, 37C
T1 chain: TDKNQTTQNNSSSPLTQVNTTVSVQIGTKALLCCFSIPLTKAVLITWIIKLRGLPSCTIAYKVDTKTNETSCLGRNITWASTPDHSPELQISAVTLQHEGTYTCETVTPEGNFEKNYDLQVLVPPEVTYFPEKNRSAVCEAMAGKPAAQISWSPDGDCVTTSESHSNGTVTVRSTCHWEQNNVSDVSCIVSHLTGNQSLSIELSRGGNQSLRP

FcγRIIIA_158F ECD = FcγRIIIA_158F ECD (human, UniProt P08637); experiment: SPR, 25C
[1] = biological target: T2, cynomolgus CD200RLa (activating form) (cynomolgus monkey); experiment: SPR, 37C
T2 chain: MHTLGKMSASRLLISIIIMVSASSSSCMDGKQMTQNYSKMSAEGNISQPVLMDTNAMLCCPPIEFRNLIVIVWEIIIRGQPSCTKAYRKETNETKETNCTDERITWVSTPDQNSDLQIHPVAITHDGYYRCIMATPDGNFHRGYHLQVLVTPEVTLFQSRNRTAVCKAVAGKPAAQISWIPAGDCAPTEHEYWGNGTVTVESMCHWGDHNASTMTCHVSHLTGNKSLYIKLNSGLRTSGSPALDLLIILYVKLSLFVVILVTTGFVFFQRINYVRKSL

[2] = biological target: T2, cynomolgus CD200RLa (activating form); experiment: FACS

FcγRIIIA_158F ECD, sequence (P08637 17-208): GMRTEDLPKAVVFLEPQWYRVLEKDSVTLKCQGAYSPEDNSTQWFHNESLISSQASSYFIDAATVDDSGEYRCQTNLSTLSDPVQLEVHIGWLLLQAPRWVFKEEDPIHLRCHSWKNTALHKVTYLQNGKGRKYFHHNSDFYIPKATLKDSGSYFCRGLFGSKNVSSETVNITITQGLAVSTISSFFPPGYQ

- Kd (mouse CD200R): > 10 µM
- Kd (FcγRIIIA_158F ECD): > 10 µM
- Kd [1]: 2.5 µM
- binding result [2]: no binding
B1: Antibody I-4P (antibody)
chain 1: not shown
chain 2: EIVLTQSPDFQSVTPKEKVTITCQASESIDSYLLWYQQKPDQSPKLLIKQASTLASGVPSRFSGSGSGTDFTLTINSLEAEDAATYYCQNYYDISSNDFGGGTKVEIKRTVAAPSVFIFPPSDEQLKSGTASVVCLLNNFYPREAKVQWKVDNALQSGNSQESVTEQDSKDSTYSLSSTLTLSKADYEKHKVYACEVTHQGLSSPVTKSFNRGEC
modifications: listing feature
